Experimental data taken from the supplement of paper PMC9170038.

System: MS2 coat protein
Experiment: apparent KD of MS2 coat protein; designed switch direction (-1 OFF switch, 1 ON switch): -1; higher = weaker reporter binding
In short: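 RNA switches sharing common flanks were transcribed by stalled E. coli RNA polymerase on Illumina chips. A doubling series of SNAP-549-labelled MS2 coat protein, from 0.7 or 1.5 nM to 3 µM, was applied in Tris-HCl pH 7.5 buffer with KCl, MgCl2, BSA, DTT, tRNA and Tween-20. Each step lasted 0.8–1.5 h at the bottom of the series and 10–20 min at the top. Normalised cluster fluorescence was curve-fitted, giving apparent KD as the per-design median over clusters.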

[1] = input ligand: microRNA oligo, concentration not stated
[2] = Eterna round: R95, input ligand: FMN 200 uM
[3] = Eterna round: R95, input ligand: microRNA oligo, concentration not stated
[4] = Eterna round: R95, input ligand: none

Row | Sequence | apparent KD of MS2 coat protein (input ligand: FMN 200 uM) [nM] | apparent KD of MS2 coat protein (input ligand: none) [nM] | apparent KD of MS2 coat protein [1] [nM] | apparent KD of MS2 coat protein [2] [nM] | apparent KD of MS2 coat protein [3] [nM] | apparent KD of MS2 coat protein [4] [nM]
1 | AAUAAUUGUGACUUGGGUGACAUGAGGAUCACCCAUGUUACAAGCUUGUUGCUCGUCUUAUAAUUAACCCAUGUCAC [LRO Sensor-off var1-24 mod of Stov1-13-A1 by Brourd] (Eterna round: R97, puzzle: Sensor, turn-off variant 1) | 21.1 | 21.9 | – | – | – | –
2 | GCAAGAUUCUGAGGAUAUGCGCUACAUCCCACAGCAGAAGGCGGAAAUUGACUGACAUGAGGAUCACCCAUGUGAUCCGCUUUC [Eternabot solution 33] (Eterna round: R96, puzzle: Exclusion NG 1) | 32.7 | 17.7 | 21.2 | – | – | –
3 | GAUUAUGCGAGCUUUAGGGACAUGAGGAUCACCCAUGUUCGUCUUAUUAGUCUGGGUACACUGACAUACCUAAAUCU [JMF 71] (puzzle: Sensor v3, turn-off variant 1) | – | – | – | 24.6 | 35.2 | 25.4
4 | UGAAGUAGAAACCGAUCCUACAUGAGGAUCACCCAUGUAGCAAGACGUGCACGCGAAGCUCGUCAGACUACCAGAAG [salish99_TOv1_r3_002] (puzzle: Sensor v3, turn-off variant 1) | – | – | – | 170 | 167 | 366
5 | UGUUAAGCAGGAUAUACGUUGUCCUAUUAAACUAGUGAAGGACAUGAGGAUCACCCAUGUAGAAGGGCUAAGCG [Eternabot (L2) Solution 70] (Eterna round: R97, puzzle: Exclusion 2) | 85.2 | 83.7 | – | – | – | –
6 | AAUAUCACAGGAUAUCCGGAUUUGUACAUGAGGAUCACCCAUGUGGUGACGUAGAACUCCGGAGAAGGGUGUCCAG [Eternabot (L2) Solution 89] (Eterna round: R97, puzzle: Exclusion 5) | 29 | 161 | – | – | – | –
7 | GACUGCUGAGGAUAUACAUGAGGAUCACCCAUGUGCUUCAGCUAGGAGACUAGCAUUGGUAGAAGGUAGUAGUC [LRO-Excl3-03] (puzzle: Exclusion 3) | – | – | – | – | 10.3 | –
8 | AUAAGUGAUAAGGAUAUUACUAGCUUCGGCUAGUGAGAAGGUAUCACAUGAGGAUCACCCAUGUGUUCCAAUAA [Ex6/7-B1] (Eterna round: R97, puzzle: Exclusion 6) | 270 | 119 | – | – | – | –
9 | CAAAAGGUAGGAUAUACGAAAAAAAAGGGUAGAAAAAAAACACAUGAGGAUCACCCAUGUAGAAGGACCAAAAG [salish99_ex2_r3_053] (puzzle: Exclusion 2) | – | – | – | 71.2 | 24.9 | 22.2
10 | UUGUACCGGUGAGGAUAUUUUUAAUAGAGCUUUAUGAUAUACAUGAGGAUCACCCAUGUUACUUUAAAGAAGGCAUCGGAUUAU [JL JR Sub091 mod 3] (Eterna round: R96, puzzle: Exclusion NG 2) | 14.9 | 20.6 | 12 | – | – | –
11 | GCGGACAAGAUGGCGACAUCAGAGACAUGAGGAUCACCCAUGUAGGAUAUCGAUUCGAAACGAAUCGAGAAGGGCAUAGUCCGC [JL denovo 34] (Eterna round: R96, puzzle: Exclusion NG 3) | 14.7 | 16.7 | 10.3 | – | – | –
12 | AAGGGUACUUUCGGAACGACAUGAGGAUCACCCAUGUAGACUGAGGAUAUCUACUACUAAGGACGGGAGAAGGCAGUGUAAUGU [Ex NG3 #76] (Eterna round: R96, puzzle: Exclusion NG 3) | – | – | 11.8 | – | – | –
13 | GGAUCGAAAGUGAGGAUAUACCACUGGAUACAGUGGUAGAAGGCACAUGAGGAUCACCCAUGUCCUUACGAUCC [Fiskers BMX 4 - 48] (puzzle: Brourd's mod of Exclusion 4) | – | – | – | – | 20.5 | –
14 | AGCCAAGCAGGAUAUGCCCGGAAUAACAUGAGGAUCACCCAUGUGACCGAUUGAUGUUCUGCAGAAGGGCUUGGAA [Erxesoan mod] (Eterna round: R97, puzzle: Exclusion 5) | 214 | 28.8 | – | – | – | –
